PMC7419741

Tests used:
[1] = biological target: IL8 (Homo sapiens) (UniProt P10145); conditions: cited from earlier work
[2] = biological target: IL8 (monomer) (Homo sapiens) (UniProt P10145); assay: cell-based assay; conditions: cited from earlier work
[3] = biological target: IL8 (dimer) (Homo sapiens) (UniProt P10145); assay: cell-based assay; conditions: cited from earlier work
[4] = biological target: CCL25 (Homo sapiens) (UniProt O15444); conditions: cited from earlier work
[5] = biological target: IFNγR1^QTY–Fc; assay: MST; 5 nM NT647-labelled receptor-Fc against a gradient of ligand; 1x PBS, 10 mM DTT, arginine at different concentrations; Monolith NT.115 pico, 25°C; data from the early T-Jump period; Kd model (law of mass action)
[6] = biological target: IFNλR1^QTY–Fc; assay: as above
[7] = biological target: IFNγ (Homo sapiens) (UniProt P01579); assay: cell-based assay; conditions: cited from earlier work
[8] = biological target: IFNγ (Homo sapiens) (UniProt P01579); assay: SPR; conditions: cited from earlier work
[9] = biological target: IL10Rα^QTY–Fc; assay: MST; 5 nM NT647-labelled receptor-Fc against a gradient of ligand; 1x PBS, 10 mM DTT, arginine at different concentrations; Monolith NT.115 pico, 25°C; data from the early T-Jump period; Kd model (law of mass action)
[10] = biological target: IL4 (Homo sapiens) (UniProt P05112); assay: SPR; conditions: cited from earlier work
[11] = biological target: CCR9^QTY–Fc (UniProt P51686); assay: MST; 5 nM NT647-labelled receptor-Fc against a gradient of ligand; 1x PBS, 10 mM DTT, arginine at different concentrations; Monolith NT.115 pico, 25°C; data from the early T-Jump period; Kd model (law of mass action)

Chain of CXCR2 (P25025 whole entry): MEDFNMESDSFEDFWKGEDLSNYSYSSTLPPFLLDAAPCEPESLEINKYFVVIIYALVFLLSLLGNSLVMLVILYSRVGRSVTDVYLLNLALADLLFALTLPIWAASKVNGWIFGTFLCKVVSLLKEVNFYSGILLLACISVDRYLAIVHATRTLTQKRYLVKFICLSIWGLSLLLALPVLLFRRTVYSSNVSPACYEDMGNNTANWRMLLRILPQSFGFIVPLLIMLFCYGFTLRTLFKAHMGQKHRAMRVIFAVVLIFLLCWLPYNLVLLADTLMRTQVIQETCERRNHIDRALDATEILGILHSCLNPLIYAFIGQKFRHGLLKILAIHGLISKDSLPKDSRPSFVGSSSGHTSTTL
Chain of IFNγR1 (P15260 18-245): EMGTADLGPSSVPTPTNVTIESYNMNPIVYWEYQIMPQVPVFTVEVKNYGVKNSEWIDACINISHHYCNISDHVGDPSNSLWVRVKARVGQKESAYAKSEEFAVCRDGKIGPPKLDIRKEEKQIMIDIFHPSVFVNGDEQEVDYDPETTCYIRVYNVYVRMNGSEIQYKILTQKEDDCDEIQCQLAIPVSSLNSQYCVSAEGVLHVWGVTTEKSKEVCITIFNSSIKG
Chain of IFNγ (Homo sapiens) (P01579 24-161): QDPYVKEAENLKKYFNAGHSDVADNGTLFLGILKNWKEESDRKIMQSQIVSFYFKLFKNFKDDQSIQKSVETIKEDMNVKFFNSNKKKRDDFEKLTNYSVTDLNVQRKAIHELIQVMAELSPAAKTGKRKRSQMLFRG
Chain of IL4 (Homo sapiens) (P05112 25-153): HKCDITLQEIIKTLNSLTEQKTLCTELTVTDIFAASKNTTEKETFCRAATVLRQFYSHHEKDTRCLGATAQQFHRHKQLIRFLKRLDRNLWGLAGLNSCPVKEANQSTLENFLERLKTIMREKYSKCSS
Chain of IFNγ (P01579 24-161): as the sequence (P01579 24-161) above
Chain of CCL25 (O15444 24-150): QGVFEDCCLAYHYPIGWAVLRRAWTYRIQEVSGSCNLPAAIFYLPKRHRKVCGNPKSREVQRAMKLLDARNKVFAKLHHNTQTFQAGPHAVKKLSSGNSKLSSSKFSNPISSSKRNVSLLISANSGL
Chain of CCL25 (Homo sapiens) (O15444 24-150): as above
Chain of IL10 (P22301 19-178): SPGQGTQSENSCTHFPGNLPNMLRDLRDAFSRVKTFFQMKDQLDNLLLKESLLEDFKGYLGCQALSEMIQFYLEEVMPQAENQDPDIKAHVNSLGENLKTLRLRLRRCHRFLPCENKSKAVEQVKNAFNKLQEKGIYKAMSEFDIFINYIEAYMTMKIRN
Chain of IL8 (Homo sapiens) (P10145 28-99): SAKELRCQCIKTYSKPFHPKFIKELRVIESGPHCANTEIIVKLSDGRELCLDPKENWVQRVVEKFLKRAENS
Chain of IL8 (monomer) (Homo sapiens) (P10145 28-99): as above
Chain of IL8 (dimer) (Homo sapiens) (P10145 28-99): as above
Chain of IL4Rα (P24394 26-232): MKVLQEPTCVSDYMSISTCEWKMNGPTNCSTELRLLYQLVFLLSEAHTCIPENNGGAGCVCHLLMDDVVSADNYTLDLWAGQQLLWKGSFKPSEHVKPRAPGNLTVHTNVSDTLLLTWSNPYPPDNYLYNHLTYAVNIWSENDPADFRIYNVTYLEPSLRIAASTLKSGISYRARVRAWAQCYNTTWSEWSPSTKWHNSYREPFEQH
Chain of IL29 (Q8IU54 20-200): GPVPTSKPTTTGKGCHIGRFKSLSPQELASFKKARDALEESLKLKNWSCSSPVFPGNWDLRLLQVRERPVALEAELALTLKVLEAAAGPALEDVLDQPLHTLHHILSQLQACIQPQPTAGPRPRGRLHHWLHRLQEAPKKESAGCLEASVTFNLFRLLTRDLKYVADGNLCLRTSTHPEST

**Q.** Which Kd [1] does the source give for CXCR2 (from UniProt P25025) here?
**A.** 70 nM

**Q.** And the Kd [2]?
**A.** 0.5 nM

**Q.** And the Kd [3]?
**A.** 8.5 nM

**Q.** With CCR9 (from UniProt P51686) as the substance, how does the Kd [4] read?
**A.** 8 nM

**Q.** With “IFNγ (from UniProt P01579 24-161) (ligand)” as the substance, how does the Kd [5] read?
**A.** 6.2 nM

**Q.** For “IL29 (from UniProt Q8IU54 20-200) (ligand)”, which Kd [6] is on record?
**A.** 11.5 nM

**Q.** Which Kd [7] does the source give for IFNγR1 (from UniProt P15260) here?
**A.** 1.7 nM

**Q.** What about the Kd [8] of the same substance?
**A.** 30.8 nM

**Q.** Which Kd [9] does the source give for “IL10 (from UniProt P22301 19-178) (ligand)” here?
**A.** 1.6 nM

**Q.** With IL4Rα (from UniProt P24394) as the substance, how does the Kd [10] read?
**A.** 1 nM

**Q.** Which Kd [11] does the source give for “CCL25 (from UniProt O15444 24-150) (ligand)” here?
**A.** 37.2 nM
